Source: patent US12269902B2, “Peptide compounds and peptide conjugates for the treatment of cancer through receptor-mediated chemotherapy” (TRANSFERT PLUS, S.E.C., priority 2015, dated 2025)
Residues, ends and D or L forms follow the SMILES beside them. *: point of attachment. X1 = CC(=O)O[C@@]12CO[C@@H]1C[C@H](O)[C@@]1(C)C(=O)[C@H](O)C3=C(C)[C@@H](OC(=O)[C@H](OC(=O)CCC(=O)*)[C@@H](NC(=O)OC(C)(C)C)c4ccccc4)C[C@@](O)([C@@H](OC(=O)c4ccccc4)[C@H]21)C3(C)C; Biotin = O=C1N[C@H]2[C@H](CS[C@H]2CCCCC(=O)*)N1

How the values were obtained:
SKOV3 cancer cells = experiment: SKOV3 luciferase subcutaneous xenograft tumour model (Docetaxel, KBA-105); details: mice, treatments at 20 mg/kg/week as printed (equivalent dose of Docetaxel)
Protocol: Mice were implanted in the flank with SKOV3 cancer cells. Tumor growth was monitored by luminescence using the Near Infrared imaging system from Carestream.
Results are expressed in terms of luminescence intensity as a function of post-treatment days.
To further evaluate the in vivo efficacy of the Katana-drug conjugate, SKOV3 cancer cells expressing luciferase were implanted in the mouse flank. […] Tumour imaging was performed on different days by injecting the luciferase substrate luciferin and by using the Xtreme imaging system from Carestream.
Luminescence was then quantified and plotted as a function of days after implantation (FIG. 23).
SKOV3 cancer cells (2.5×10^6 cells) expressing luciferase were implanted in the right flank of mice. Tumour growth was monitored using near infrared (NiR) imaging system from Carestream by injecting the luciferase substrate luciferin. […] Luminescence associated with tumour growth of SKOV3/Luc cancer cells was quantified as a function of post-treatment days with the instrument software.

[1] = system: MDA-MB-231 breast cancer cells; experiment: cells; details: MDA-MB-231 (Breast); Table 4; 2 or 3 days
Protocol: Breast cancer cells (MDA-MB231) were incubated with increasing concentrations of KBC106 or curcumin. After 72 hrs, thymidine incorporation assay was performed to assess the anti-proliferative properties of both molecules. IC50 values were extracted from the anti-proliferative curves.
(§1) The phytochemical Curcumin, unconjugated and conjugated, was also tested on cancer cell proliferation (FIG. 28). Breast cancer cells (MDA-MB231) were incubated with increasing concentrations of KBC106 or curcumin. After 72 hrs, thymidine incorporation assay was performed to assess the anti-proliferative properties of both molecules. IC50 values were extracted from the anti-proliferative curves. […] Proliferation assay was also performed using different types of cancer cells (ovarian, breast, skin and colorectal cancer cells). IC50 values were calculated from the anti-proliferation curves.
(§2) Cancer cells were cultured in 96-well white plates (Perkin Elmer). They were synchronized for 24 hours in serum-deprived medium. After incubation of cells with unconjugated drugs (docetaxel, cabazitaxel, doxorubicin) or with drug-Katana peptide conjugates for 2 or 3 days, all media was aspirated and cells were pulse-labeled for 4 hours at 37° C./[…]/5% CO2 with media containing 2.5 μCi/mL [methyl-3H] thymidine (Perkin Elmer). Cells were washed, fixed, and dried before addition of scintillation fluid (Microscint 0, Perkin Elmer). After 24 hours, cell-associated tritium was quantified by counting on a plate reader (TopCount, Perkin Elmer). Incorporated [3H] thymidine was plotted for each drug concentration.

[2] = Plasma pharmacokinetics of radiolabeled compounds in mice; format: in vivo; details: mice iv, Docetaxel 2.2 mg/kg, KBA105 5 mg/kg
Protocol: FIG. 20 is a graph showing concentration of unconjugated and conjugated Docetaxel as a function of time. Mice were injected iv with radiolabeled [^3H]-Docetaxel or radiolabeled [^125I]-KBA105 at an equivalent dose of Docetaxel (Docetaxel=2.2 mg/kg; KBA105=5 mg/kg). Plasma samples were collected at different time points and radioactivity quantified. Results are expressed in terms of KBA105 or Docetaxel concentration in plasma as a function of time. Area under the curve for the time period (AUC1-24) was estimated for KBA105 and Docetaxel using GraphPad Prism software. Ratio between AUC1-24 for KBA105 and Docetaxel was calculated to be around 35.
To evaluate the impact of the drug conjugation to Katana Biopharma peptide on drug pharmacokinetics and tissue distribution, mice were injected with [^125I]-Docetaxel-Katana peptide conjugate. Plasma was collected at different times (FIG. 19A). Radioactivity associated with plasma was quantified and pharmacokinetic parameters were determined. […] In FIG. 20, plasma concentration of Docetaxel-Katana peptide conjugate was compared to that of unconjugated Docetaxel after iv bolus injection.
After radiolabeling free iodine was remove. […] Plasma was collected at the indicated times.

P-gp (MDR1) = P-gp (MDR1) (Homo sapiens, UniProt P08183); experiment: Drug accumulation in MDCK-MDR1 cells with or without Cyclosporin A; details: 50 nM, 1 hr, 37° C., CsA 10 μM
Sequence of P-gp (MDR1) (P08183 whole entry): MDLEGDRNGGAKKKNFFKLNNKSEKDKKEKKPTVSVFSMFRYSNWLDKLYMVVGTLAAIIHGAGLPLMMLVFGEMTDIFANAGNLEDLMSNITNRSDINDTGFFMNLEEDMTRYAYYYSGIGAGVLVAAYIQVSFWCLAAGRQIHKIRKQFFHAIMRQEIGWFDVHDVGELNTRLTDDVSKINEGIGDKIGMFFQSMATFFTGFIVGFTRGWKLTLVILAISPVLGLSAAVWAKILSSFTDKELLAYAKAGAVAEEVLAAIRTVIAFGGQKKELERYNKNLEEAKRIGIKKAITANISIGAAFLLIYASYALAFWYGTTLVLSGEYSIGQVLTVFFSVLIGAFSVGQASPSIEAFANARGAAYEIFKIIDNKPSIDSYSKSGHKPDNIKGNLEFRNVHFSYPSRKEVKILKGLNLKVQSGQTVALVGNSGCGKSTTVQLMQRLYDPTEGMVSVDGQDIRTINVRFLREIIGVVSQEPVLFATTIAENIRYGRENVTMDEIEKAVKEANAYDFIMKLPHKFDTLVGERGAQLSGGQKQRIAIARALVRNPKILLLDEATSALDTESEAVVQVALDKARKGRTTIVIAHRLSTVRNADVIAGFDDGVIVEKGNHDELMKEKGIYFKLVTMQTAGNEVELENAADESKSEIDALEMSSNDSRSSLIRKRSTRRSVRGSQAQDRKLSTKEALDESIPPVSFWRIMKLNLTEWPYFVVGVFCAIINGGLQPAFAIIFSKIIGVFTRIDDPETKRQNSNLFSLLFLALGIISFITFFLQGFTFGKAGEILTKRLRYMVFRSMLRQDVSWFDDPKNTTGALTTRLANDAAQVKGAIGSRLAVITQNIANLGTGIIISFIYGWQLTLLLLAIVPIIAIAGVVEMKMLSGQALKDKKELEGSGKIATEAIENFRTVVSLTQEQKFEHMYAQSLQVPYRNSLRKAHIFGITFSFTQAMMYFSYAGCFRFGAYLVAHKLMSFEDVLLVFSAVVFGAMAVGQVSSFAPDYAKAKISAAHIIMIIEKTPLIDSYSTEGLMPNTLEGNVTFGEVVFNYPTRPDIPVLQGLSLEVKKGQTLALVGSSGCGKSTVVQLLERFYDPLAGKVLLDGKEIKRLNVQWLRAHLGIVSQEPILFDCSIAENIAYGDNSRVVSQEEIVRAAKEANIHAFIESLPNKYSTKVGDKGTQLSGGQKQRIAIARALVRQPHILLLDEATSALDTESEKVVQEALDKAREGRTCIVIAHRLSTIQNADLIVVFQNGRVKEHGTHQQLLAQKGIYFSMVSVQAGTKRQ
Protocol: 6A. […] 6B. MDCK-MDR1 cells were incubated with 50 nM of either [^14C]-Doxorubicin or [^125I]-Katana peptide-Doxorubicin conjugate (KBB106) for 1 hr at 37° C. in the presence or absence of CsA (10 μM). After the incubation, cells were washed and radioactivity accumulated in cells was quantified. The results were expressed in terms of uptake fmol/mg of protein.
In order to determine whether the anticancer drug-Katana-peptide conjugates could also be P-gp substrates, MDCK-transfected cells with human MDR1 were used (MDCK-MDR1).
Cells were washed three times with PBS and preincubated for 30 min at 37° C. in culture medium without serum with or without the P-gp inhibitor Cyclosporin A (10 μM). Radiolabelled molecules (50 nM) were then added for 60 min. The cells were rapidly washed three times with ice-cold PBS and then lysed in 500 µL of 0.1 M NaOH. The amount of radiolabelled molecules retained in the cells was counted by β-scintillation counting (Packard model 1900 TR). An aliquot of cell lysate was used in parallel to determine cellular protein concentration.

[3] = system: ES-2 ovarian cancer cells; experiment: [3H]-Thymidine incorporation cell proliferation assay, ES-2; format: cell-based; details: ES-2 (Ovary); Table 4; 2 or 3 days
Protocol: (§3) The effect of the Docetaxel-Katana peptide conjugate on various cell line proliferations was evaluated and compared to unconjugated Docetaxel (Table 4). IC50 values obtained for the Docetaxel-Katana peptide conjugate were very similar to those of Docetaxel in the cancer cells tested.
as §1, with “anti-proliferation curves. In all cases, the Curcumin conjugate (KBC106) had stronger anti-proliferative activity (9-100 fold) than unconjugated Curcumin, as shown in Table 6 below.” for “anti-proliferation curves.”
as §2

A-375 skin cancer cells = experiment: [3H]-Thymidine incorporation cell proliferation assay, A-375; format: cell-based; details: A-375 (Skin); Table 4; 2 or 3 days
Protocol: as §3
as §1, with “anti-proliferation curves. In all cases, the Curcumin conjugate (KBC106) had stronger anti-proliferative activity (9-100 fold) than unconjugated Curcumin, as shown in Table 6 below.” for “anti-proliferation curves.”
as §2

[4] = system: SK-MEL-28 skin cancer cells; experiment: [3H]-Thymidine incorporation cell proliferation assay, SK-MEL-28; format: cell-based; details: SK-MEL-28 (Skin); Table 4; 2 or 3 days
Protocol: as §3
as §1, with “anti-proliferation curves. In all cases, the Curcumin conjugate (KBC106) had stronger anti-proliferative activity (9-100 fold) than unconjugated Curcumin, as shown in Table 6 below.” for “anti-proliferation curves.”
as §2

[5] = Tissue distribution of radiolabeled compounds in mice
Protocol: CD-1 mice were injected with the radiolabeled conjugate at 5 mg/kg via iv bolus injections (21A) or […] of radiolabeled Docetaxel (21B). At the indicated times (1 h, 6 h, 24 h) mice were sacrificed and perfused with saline for 8 min. Tissues were then collected and radioactivity was measured. Results are expressed in terms of ng/g of tissue.
At the indicated times (1, 6 and 24 hours), whole body perfusion was performed for 8 min with saline at a flow rate of 8 ml/min after […] hours iv bolus injections.
After radiolabeling free iodine was remove. Mice were injected with Docetaxel-[^125I]-Katana peptide conjugate at 5 mg/kg. Plasma was collected at the indicated times. After 1, 2 and 24 hours some mice were perfused with saline, sacrificed and tissues were collected. Radioactivity in the plasma and tissues were measured in a radioactivity counter and results were calculated and expressed in terms of […] for the plasma or ng/g of tissues.

sortilin = target: T1, sortilin (Homo sapiens, UniProt Q99523); experiment: biochemical; format: binding; details: read-out: ka
T1 construct: Increasing concentrations of a soluble form of sortilin was then injected over the sensor chip
T1 sequence (Q99523 78-755 limits assumed): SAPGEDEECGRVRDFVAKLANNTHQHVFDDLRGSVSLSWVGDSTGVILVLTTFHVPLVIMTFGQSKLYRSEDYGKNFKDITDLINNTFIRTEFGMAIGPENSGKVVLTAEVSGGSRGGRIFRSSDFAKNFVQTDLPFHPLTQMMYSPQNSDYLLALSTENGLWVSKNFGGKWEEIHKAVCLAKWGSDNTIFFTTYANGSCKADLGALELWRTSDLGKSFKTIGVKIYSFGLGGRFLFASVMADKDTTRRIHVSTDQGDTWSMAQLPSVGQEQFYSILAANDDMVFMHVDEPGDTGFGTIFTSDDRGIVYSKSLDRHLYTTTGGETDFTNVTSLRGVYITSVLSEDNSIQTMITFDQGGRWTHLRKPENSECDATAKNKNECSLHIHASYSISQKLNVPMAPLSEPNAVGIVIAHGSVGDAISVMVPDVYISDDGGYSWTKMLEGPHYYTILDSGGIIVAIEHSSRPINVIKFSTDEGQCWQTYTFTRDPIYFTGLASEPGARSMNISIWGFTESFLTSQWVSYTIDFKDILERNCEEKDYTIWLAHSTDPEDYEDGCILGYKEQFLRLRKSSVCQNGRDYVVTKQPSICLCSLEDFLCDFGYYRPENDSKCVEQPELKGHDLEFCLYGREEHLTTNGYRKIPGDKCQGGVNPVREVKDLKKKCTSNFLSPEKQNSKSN
Protocol: Biotinylated Katana peptide was immobilized on a streptavidin sensor chip. A. Soluble sortilin was then injected over the immobilized peptide. The surface plasmon resonance signal was then monitored over time.
Surface plasmon resonance (SPR) was first used to investigate whether these peptides could be recognized by sortilin. For this approach, biotin was added on the C-terminal end of the Katana-Biopharma peptide during peptide synthesis. The biotinylated-peptide (KBP-103) was then immobilized on a streptavidin sensor chip using recommended procedures from the manufacturer. Increasing concentrations of a soluble form of sortilin was then injected over the sensor chip. Interactions between immobilized KBP-103 and the receptor sortilin was then monitored in real time. A representative interaction curve is shown in FIG. 1, and from the sensorgram curves the affinity constant as well as Ka and Kd were determined and are indicated in Table 2. Affinity constants (KD, Ka and […]) were extracted from various injections using the BIA evaluation software.

SMILES: CSCC[C@H](NC(=O)[C@H](CC(N)=O)NC(=O)[C@H](CCCNC(=N)N)NC(=O)[C@@H](NC(=O)CNC(=O)[C@H](C)NC(=O)[C@H](CCCCNC(=O)CCC(=O)O[C@@H](C(=O)O[C@H]1C[C@@]2(O)[C@@H](OC(=O)c3ccccc3)[C@@H]3[C@]4(OC(C)=O)CO[C@@H]4C[C@H](O)[C@@]3(C)C(=O)[C@H](O)C(=C1C)C2(C)C)[C@@H](NC(=O)OC(C)(C)C)c1ccccc1)NC(=O)[C@H](C)NC(=O)[C@H](CCCNC(=N)N)NC(=O)[C@@H](NC(=O)CNC(C)=O)C(C)C)C(C)C)C(=O)N[C@@H](Cc1ccccc1)C(=O)N[C@@H](CCCCNC(=O)CCC(=O)O[C@@H](C(=O)O[C@H]1C[C@@]2(O)[C@@H](OC(=O)c3ccccc3)[C@@H]3[C@]4(OC(C)=O)CO[C@@H]4C[C@H](O)[C@@]3(C)C(=O)[C@H](O)C(=C1C)C2(C)C)[C@@H](NC(=O)OC(C)(C)C)c1ccccc1)C(=O)N[C@@H](CO)C(=O)N[C@@H](CCC(=O)O)C(=O)N[C@@H](CO)C(=O)N[C@@H](Cc1ccc(O)cc1)C(=O)O [KBA-105] (Ac-GVRAK(X1)AGVRNMFK(X1)SESY-OH; C-terminus assumed)
- effect on body weight (SKOV3 cancer cells): unaffected
- IC50 [1]: 1.03 nM
- Ratio between AUC1-24 for KBA105 and Docetaxel [2]: around 35
- effect of CsA on accumulation (P-gp (MDR1)): lack of CsA effect
- IC50 [3]: 0.7 nM
- IC50 (A-375 skin cancer cells): 0.43 nM
- IC50 [4]: 0.09 nM
- Ratio (Estimated Docetaxel/Docetaxel) (AUC1-24) ([5]; Brain): 21.3
- Ratio KBA105/Docetaxel (AUC1-24) ([5]; Brain): 48.3
- Ratio (Estimated Docetaxel/Docetaxel) (AUC1-24) ([5]; Heart): 4.5
- Ratio KBA105/Docetaxel (AUC1-24) ([5]; Heart): 10.3
- Ratio (Estimated Docetaxel/Docetaxel) (AUC1-24) ([5]; Kidney): 5.3
- Ratio KBA105/Docetaxel (AUC1-24) ([5]; Kidney): 12.0
- Ratio (Estimated Docetaxel/Docetaxel) (AUC1-24) ([5]; Liver): 26.4
- Ratio KBA105/Docetaxel (AUC1-24) ([5]; Liver): 60
- Ratio (Estimated Docetaxel/Docetaxel) (AUC1-24) ([5]; Lung): 221
- Ratio KBA105/Docetaxel (AUC1-24) ([5]; Lung): 500
- Ratio (Estimated Docetaxel/Docetaxel) (AUC1-24) ([5]; Mammary): 1.5
- Ratio KBA105/Docetaxel (AUC1-24) ([5]; Mammary): 3.3
- Ratio (Estimated Docetaxel/Docetaxel) (AUC1-24) ([5]; Ovary): 0.7
- Ratio KBA105/Docetaxel (AUC1-24) ([5]; Ovary): 1.6
- Ratio (Estimated Docetaxel/Docetaxel) (AUC1-24) ([5]; Spleen): 25.0
- Ratio KBA105/Docetaxel (AUC1-24) ([5]; Spleen): 24.9

SMILES: CC[C@H](C)[C@H](N)C(=O)N[C@@H](CCCCN)C(=O)N[C@@H](CC(C)C)C(=O)N[C@@H](CO)C(=O)NCC(=O)NCC(=O)N[C@H](C(=O)N[C@@H](CCC(N)=O)C(=O)N[C@@H](C)C(=O)N[C@@H](CCCCN)C(=O)N[C@@H](C)C(=O)NCC(=O)N[C@H](C(=O)N[C@H](C(=O)N[C@@H](CC(N)=O)C(=O)N[C@@H](CCSC)C(=O)N[C@@H](Cc1ccccc1)C(=O)N[C@@H](CCCCN)C(=O)N[C@@H](CO)C(=O)N[C@@H](CCC(=O)O)C(=O)N[C@@H](CO)C(=O)N[C@@H](Cc1ccc(O)cc1)C(=O)N[C@@H](CCCCNC(=O)CCCC[C@@H]1SC[C@@H]2NC(=O)N[C@@H]21)C(=O)O)[C@@H](C)CC)C(C)C)C(C)C [KBP-103] (H-IKLSGGVQAKAGVINMFKSESYK(Biotin)-OH)
- kon (sortilin): 683000 M⁻¹ s⁻¹
